# Test results as given in the supplement of paper PMC12764529.
# ± gives the half width of the 95% confidence interval.
# Assay: folding stability dG unfold from trypsin proteolysis; higher = more stable
# In short: (§1)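 Bayesian fitting of sequencing counts gave K50 for each design. Unfolding free energy followed by setting this against a sequence-predicted unfolded-state K50 and a shared folded-state K50, either per protease or with trypsin and chymotrypsin combined. The designs, under 80 residues and lacking cysteine, were digested in a PA-tagged cDNA display format at 11 threefold-diluted protease concentrations and without protease, and only those with AlphaFold2 dimer inter-PAE above 15 were kept.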
row,Sequence,folding stability dG unfold [kcal/mol]
1,SAGGGLANLSLEEIRQLLLEKFPELPVEVKVTPVDEKDGVVLVTVRPPLPDGSTVESEEELPLEPGLSAGGS [r16_564_JUSTAS],0.661 ± 0.025
2,SAGGSAGGSPVVTVENVTRPSDYYTYTFKLPDGTVITLDAKSEEEAREKAKELGLENLNFKTEESAGGSAGG [r6_601_JUSTAS],3.15 ± 0.19
3,SMSIELDAESIEEIADFLKKAIEDGNPDAKIRIELYPLGGEREEREYDSIDEIIAELKKGPARIRIELEPSA [r9_589_TrMRF],1.36 ± 0.037
4,SAGGSAGGMKIEIFQNDDGIYVRIKLKPPNGPPRTMVFPFTANQIKDALKQFPNYKIEDIEVYRSAGGSAGG [r6_879_TrROS],1.47 ± 0.12
5,SKGTFRAVLPLETLKELIERFKSKGYRIEVKPLSIKPFEVPGIREDGTPELFPVVEVEAEIEIYPPEDPASA [r9_991_TrMRF],1.671 ± 0.015
6,QRTVYIPIRGMPPDQMVDMIRMALRQAREKGHPNRTIRIWMPGPPEQRERARRYIKELADEPGLNVTIEGWS [r1_387_TrROS],1.71 ± 0.029
7,SAGGKMLVKIKIKVTIYDKNGKPVKEVELELVFPSLEDLLNALKSLSPEKIKKVEIVSIEEIDEEDLSAGGS [r16_677_TrROS_Hall],3.5 ± 0.26
8,SAGIEIDIEVDPENGFIKITAKIHNPDGNPVYEMEMWIPVDNGRIYRVDIRINPDNGKIELDIEPFPLNSAG [r5_34_TrROS],3.48 ± 0.29
9,SAGGSAGGKKTYRLEITIYNKDGKEIKKIEIEAETEEEALEAAKKLQEEAKKKGLKVEIKVEKVSAGGSAGG [r6_285_TrROS_Hall],4.2 ± 0.21
10,SAGGSAPPIEIEIDKWERDPENGYVYATVKIKLPGKKIEIPIWMDDPPGQAENQVKMLAENIARQLSAGGSA [r15_979_TrROS],0.807 ± 0.082
11,SAGGSAGGSAGMTLEELAAADPDAVVPVKVPGTDTDVDVTVEPGAVRFTFPDGTTATVPASAGGSAGGSAGG [r17_128_JUSTAS],-0.307 ± 0.11

# Assay: folding stability dG unfold from chymotrypsin proteolysis; higher = more stable
# In short: as §1
row,Sequence,folding stability dG unfold [kcal/mol]
1,SAGGKTIWIPMPPGDPEKFAKNIADEILEEAQKQGENVDVKITIQYPDGQYMRITIDGNGKIDKIVPWSAGG [r13_965_TrROS],0.652 ± 0.31
2,SAGGSAGGSAMTVRIEFEDGSVKEIPAEEFSEDFIKALPKKYKVSEYPEPPLDNNKSNILKSAGGSAGGSAG [r3_69_JUSTAS],0.697 ± 0.085
3,SAGMEKKTLTVTHPDGSEATVEVYKNPETGKYVTLVHYPETGKYEVFDDNGNLIATFGNGSAADAFKAISAG [r5_757_TrMRF],1.8 ± 0.1
4,SAGGSAGGSAGMKVAVLTIPENGKPVLVVELPDGGALAFDPDTDAVFLLDDDKIYYLGPASAGGSAGGSAGG [r17_476_TrMRF],1.52 ± 0.059
5,SAGGSAGGSAGGSPGNYREVEIEFRDPDDNGKEVKIEIWVQPGMPEEQIKEFVRELLRRSAGGSAGGSAGGS [r4_442_TrROS],1.4 ± 0.19
6,SMKITIVENEDGSLKIKVYFKDTGKVVEKTFEKGETIEEQVKKLAEELEKELGLEVVDVEIVKLPPPEKPSA [r9_1205_TrROS_Hall],3.74 ± 0.096
7,SAGGEMELTLTVTIKVENLTKEQIEEELRKLLEELGFEIEEITVEYDEENKTITVTVRIRLPPLEDLSAGGS [r16_287_TrROS_Hall],2.98 ± 0.23
8,SAGGSAGGSERWVKIWFPPGGTLEEASKMIEEWAQQLGLPITKIDEIEWDPGNGRVEITIRLKSAGGSAGGS [r12_131_TrROS],2.013 ± 0.015
9,SAMKKPPKTLTLVIVVKVPEEEMTEEQLEELARELAEALAPPGEKVEVKVEVERLPDGTVVVKIEIKLESAG [r14_389_TrROS_Hall],1.98 ± 0.067
10,SAGGSAGGSAEKTLTVVIKVKPNKTPEEIAKEIKKKLNLPNVEIVSIEYDKETNYITIKVKVSAGGSAGGSA [r18_481_TrROS_Hall],3.39 ± 0.056
11,SAGGSAMPLLIVDKNNNVTLISASSPEELEELLKKYNIKKIEPFPFPDGKALVFIAEYPDGIIYSGSAGGSA [r15_632_TrMRF],1.65 ± 0.047
12,SAGGSAGGSAGGKLIVLPVTSDEVFDFGDGPIPVPAGSIVVLEISPDGAKALVFSPEDLSAGGSAGGSAGGS [r10_353_TrMRF],0.886 ± 0.065
13,SAGDKIEIKFNIPMPEGPIRIMVWDNGKREEKDIPPGEEVTIKIDLPPGDDYRIAIYYPDGNMHEFPINSAG [r5_187_TrROS],3.31 ± 0.14
14,SAGGSAGGSAGGGMTVLSFTMPKEEVEKYFEEKGLDATEMTISPGPGDTYSVTVLDPGSSAGGSAGGSAGGS [r10_999_JUSTAS],-0.0653 ± 0.17
15,SAGGMLEEVAEELAKELNATAREFTTVGDVPRILLTFKVPGSSTYLEVTLTLPPDGSVERTTKPIAASAGGS [r16_433_JUSTAS],1.7 ± 0.17
16,SAGGMEEIEPVTITITVVDEETGEKVEIKITVPKEEITRIEIKPDGTIRIYFKENNEVIEIKLEDIKSAGGS [r16_410_TrROS_Hall],4.22 ± 0.19
17,SAGGSAGGSEATLEVEVRVDGVLVRVRVEYDLETQELRIEVEVRPLPPPPVEVRTEYRSLEDLSAGGSAGGS [r12_813_TrROS_Hall],1.59 ± 0.26
18,SMEIKIEITYDKDTNYLVIKVTIKLKTKTVDKKTKKVTEKEEEITLTLVIKLKPLKPGQKLKLEIKLFPESA [r9_1058_TrROS_Hall],4.93 ± 0.33
19,SAGGSAGGSAGGSDNKAILGDVPIKFYDKNGKPVITAKIGYFPDGRVVIYFPDGSKIEASAGGSAGGSAGGS [r10_972_TrMRF],1.04 ± 0.023
20,SAGGSAMKVRLEVEEEDGKLRVRLEVEVGPPVVRVEVEAEVEEVDGELVLKVTVKVELSPEALEALSAGGSA [r15_725_TrROS_Hall],3.78 ± 0.11
21,SAGGSAGGSAMRELVKRAAKNGNPGQKVMIRPPDKRYFPITVEGNKIEPKDLPPGWEVHVISAGGSAGGSAG [r3_244_TrROS],-0.443 ± 0.3
